Laboratory results: the Immune Epitope Database (IEDB)

Tests used:
HLA-B*15:01 [1] = assay: IEDB peptide-MHC binding, purified MHC/competitive/radioactivity; filed as Kd, often an IC50 or EC50 that approximates it; ≥ and ≤ were set here for values at or beyond the usual limits of such assays
HLA-B*18:01 = assay: as above
HLA-B*40:01 = assay: as above
HLA-B*40:02 = assay: as above
HLA-B*44:02 = assay: as above
HLA-B*44:03 = assay: as above
HLA-B*45:01 = assay: as above
HLA-B*08:01 = assay: as above; details: source organism: Vaccinia virus WR
HLA-A*23:01 = assay: as above; details: source organism: Dengue virus 1 Brazil/97-11/1997
HLA-A*24:02 = assay: as above; details: source organism: Dengue virus 1 Brazil/97-11/1997
HLA-B*15:01 [2] = assay: IEDB peptide-MHC binding, purified MHC/competitive/fluorescence; filed as Kd, often an IC50 or EC50 that approximates it; ≥ and ≤ were set here for values at or beyond the usual limits of such assays
HLA-A*02:02 = assay: IEDB peptide-MHC binding, purified MHC/competitive/radioactivity; filed as Kd, often an IC50 or EC50 that approximates it; ≥ and ≤ were set here for values at or beyond the usual limits of such assays
HLA-A*02:03 = assay: as above
HLA-A*02:06 = assay: as above
HLA-A*02:01 [3] = assay: IEDB peptide-MHC binding, purified MHC/competitive/fluorescence; filed as Kd, often an IC50 or EC50 that approximates it; ≥ and ≤ were set here for values at or beyond the usual limits of such assays
HLA-A*26:01 = assay: as above
HLA-A*02:01 [4] = assay: IEDB peptide-MHC binding, purified MHC/competitive/radioactivity; filed as Kd, often an IC50 or EC50 that approximates it; ≥ and ≤ were set here for values at or beyond the usual limits of such assays
HLA-A*32:01 = assay: as above; details: source organism: Variola virus
HLA-A*68:02 = assay: as above
HLA-A*01:01 = assay: as above; details: source organism: Dengue virus 2 Jamaica/1409/1983
[5] = source organism: Vaccinia virus WR
[6] = source organism: Lymphocytic choriomeningitis virus (strain Armstrong)
[7] = source organism: Mammarenavirus machupoense
[8] = source organism: SARS coronavirus Tor2
[9] = source organism: Dengue virus 2 Jamaica/1409/1983
[10] = source organism: Mammarenavirus juninense
[11] = source organism: Trypanosoma cruzi
[12] = source organism: Mammarenavirus lassaense

With MMKTYIEFV the Kd (HLA-B*15:01 [1]; [5]) was 170 nM.

QEADNMITEM showed a Kd (HLA-B*18:01; [6]) of 1470 nM, a Kd (HLA-B*40:01; [6]) of 5360 nM and a Kd (HLA-B*40:02; [6]) of 124 nM. The Kd (HLA-B*44:02; [6]) was 224 nM, the Kd (HLA-B*44:03; [6]) was 813 nM and the Kd (HLA-B*45:01; [6]) was 1190 nM.

Sequence MVHIYFVSL has a Kd (HLA-B*08:01) of 1.35 nM and a Kd (HLA-B*15:01 [1]; [5]) of 5460 nM.

KEKAPDVGVL was tested, and the Kd (HLA-B*18:01; [7]) was no less than 70400 nM, the Kd (HLA-B*40:01; [7]) was 1050 nM and the Kd (HLA-B*40:02; [7]) was 64.9 nM. It also gave a Kd (HLA-B*44:02; [7]) of 2410 nM, a Kd (HLA-B*44:03; [7]) of no less than 62100 nM and a Kd (HLA-B*45:01; [7]) of no less than 30900 nM.

VMAFIAFLRF gave a Kd (HLA-A*23:01) of 846 nM, a Kd (HLA-A*24:02) of 901 nM and a Kd (HLA-B*15:01 [1]; source organism: Dengue virus 1 Brazil/97-11/1997) of 62.3 nM.

For SELRPDTRY, the Kd (HLA-B*18:01; [8]) was 11200 nM, the Kd (HLA-B*40:01; [8]) was 11300 nM and the Kd (HLA-B*40:02; [8]) was 3140 nM. For the same sequence, the Kd (HLA-B*44:02; [8]) was 520 nM, the Kd (HLA-B*44:03; [8]) was 714 nM and the Kd (HLA-B*45:01; [8]) was 1650 nM.

With QNGALAINTF the Kd (HLA-B*15:01 [2]; source organism: Human herpesvirus 4 type 2) was no less than 20000 nM.

In the case of LVQYRILPM, the Kd (HLA-A*02:02; [5]) is reported as 14800 nM, the Kd (HLA-A*02:03; [5]) is reported as 1170 nM and the Kd (HLA-A*02:06; [5]) is reported as 4670 nM. It also gave a Kd (HLA-B*15:01 [1]; [5]) of 63.3 nM.

GILKSILKV showed a Kd (HLA-A*02:01 [3]; source organism: Lassa virus Josiah) of 39.1 nM.

In the case of FQRALIFILL, the Kd (HLA-B*15:01 [1]; [9]) is reported as 117 nM.

FENAILSMT gave a Kd (HLA-B*18:01; [6]) of 3300 nM, a Kd (HLA-B*40:01; [6]) of 18400 nM and a Kd (HLA-B*40:02; [6]) of 32.3 nM. For the same sequence, the Kd (HLA-B*44:02; [6]) was 6480 nM, the Kd (HLA-B*44:03; [6]) was 6370 nM and the Kd (HLA-B*45:01; [6]) was 1820 nM.

ILRHSTAHL showed a Kd (HLA-B*15:01 [2]; source organism: Bacillus anthracis str. A0488) of 142 nM.

QIHLAIMAVF showed a Kd (HLA-B*15:01 [1]; source organism: Dengue virus 4 Philippines/H241/1956) of 17 nM.

LEVKFNAPA gave a Kd (HLA-B*18:01; [8]) of 111 nM, a Kd (HLA-B*40:01; [8]) of 5310 nM and a Kd (HLA-B*40:02; [8]) of 9.33 nM. It also gave a Kd (HLA-B*44:02; [8]) of no less than 21300 nM, a Kd (HLA-B*44:03; [8]) of 6010 nM and a Kd (HLA-B*45:01; [8]) of 4.46 nM.

Work on EISSIISLM yielded a Kd (HLA-A*26:01; source organism: Bacillus anthracis str. A2012) of 9.8 nM.

SDQKFVDVI was tested, and the Kd (HLA-B*18:01; [10]) was no less than 26300 nM, the Kd (HLA-B*40:01; [10]) was no less than 70700 nM and the Kd (HLA-B*40:02; [10]) was 4430 nM. It also gave a Kd (HLA-B*44:02; [10]) of no less than 25400 nM, a Kd (HLA-B*44:03; [10]) of no less than 78100 nM and a Kd (HLA-B*45:01; [10]) of 16700 nM.

With IVIGVGNSAL the Kd (HLA-B*15:01 [1]; source organism: Dengue virus 4 Dominica/814669/1981) was 52.9 nM.

NSKNTSMSF was tested, and the Kd (HLA-B*15:01 [1]; source organism: Dengue virus 3 Martinique/1243/1999) was 526 nM.

Work on GLSRPLLRL yielded a Kd (HLA-A*02:01 [4]; source organism: Hepatitis B virus subtype ayw) of no less than 5000 nM.

LLLSINSSF showed a Kd (HLA-A*32:01) of 2090 nM and a Kd (HLA-B*15:01 [1]; source organism: Variola virus) of 0.883 nM.

MDGIQYGRSG was tested, and the Kd (HLA-B*18:01; [8]) was no less than 70500 nM, the Kd (HLA-B*40:01; [8]) was no less than 69600 nM and the Kd (HLA-B*40:02; [8]) was no less than 70800 nM. For the same sequence, the Kd (HLA-B*44:02; [8]) was no less than 49900 nM, the Kd (HLA-B*44:03; [8]) was no less than 58600 nM and the Kd (HLA-B*45:01; [8]) was 10900 nM.

With DICSGLQQL the Kd (HLA-A*26:01; source organism: Escherichia coli O139:H28 str. E24377A) was no less than 20000 nM.

For EVLRPTTLV, the Kd (HLA-A*02:01 [4]; [11]) was 13700 nM, the Kd (HLA-A*02:02; [11]) was 6570 nM and the Kd (HLA-A*02:03; [11]) was 5480 nM. For the same sequence, the Kd (HLA-A*02:06; [11]) was 1460 nM and the Kd (HLA-A*68:02; [11]) was 6.8 nM.

Work on CELYHYQECV yielded a Kd (HLA-B*18:01; [8]) of no less than 36200 nM, a Kd (HLA-B*40:01; [8]) of 1720 nM and a Kd (HLA-B*40:02; [8]) of 8200 nM. It also gave a Kd (HLA-B*44:02; [8]) of 7850 nM, a Kd (HLA-B*44:03; [8]) of 4200 nM and a Kd (HLA-B*45:01; [8]) of 425 nM.

TVLEKNVTV was tested, and the Kd (HLA-A*02:01 [3]; source organism: Influenza A virus (A/Harbin/1/1988(H1N2))) was 5.8 nM.

KENLYIKSI gave a Kd (HLA-B*18:01; [12]) of no less than 28800 nM, a Kd (HLA-B*40:01; [12]) of 14200 nM and a Kd (HLA-B*40:02; [12]) of 19.1 nM. It also gave a Kd (HLA-B*44:02; [12]) of 232 nM, a Kd (HLA-B*44:03; [12]) of 118 nM and a Kd (HLA-B*45:01; [12]) of 2150 nM.

In the case of RIMAWTVVNSI, the Kd (HLA-A*02:01 [3]; source organism: Influenza A virus (A/chicken/California/1002a/00(H6N2))) is reported as no more than 1 nM.

With PLESDAVECL the Kd (HLA-A*02:01 [4]; source organism: Homo sapiens) was no less than 63100 nM, the Kd (HLA-A*02:02; source organism: Homo sapiens) was 4230 nM and the Kd (HLA-A*02:03; source organism: Homo sapiens) was 11900 nM. It also gave a Kd (HLA-A*02:06; source organism: Homo sapiens) of no less than 68500 nM and a Kd (HLA-A*68:02; source organism: Homo sapiens) of no less than 65200 nM.

In the case of QMSSGNLLF, the Kd (HLA-A*01:01) is reported as 4390 nM and the Kd (HLA-B*15:01 [1]; [9]) is reported as 6.83 nM.

For SEFSSLPSYA, the Kd (HLA-B*18:01; [8]) was 1060 nM, the Kd (HLA-B*40:01; [8]) was 431 nM and the Kd (HLA-B*40:02; [8]) was 22.4 nM. It also gave a Kd (HLA-B*44:02; [8]) of 343 nM, a Kd (HLA-B*44:03; [8]) of 13.1 nM and a Kd (HLA-B*45:01; [8]) of 25.3 nM.
